Reference: publication PMC10397247
One block for each binder: values may come before it.

Key:
Assay in all cases: two-hybrid library CCNG1;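 also: natural log of median RNA to DNA barcode read ratio; higher means stronger binding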
[1] = molecular target: T1, O9
T1 chain: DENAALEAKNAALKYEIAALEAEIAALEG

[2] = molecular target: T2, 4H568-bH
T2 chain: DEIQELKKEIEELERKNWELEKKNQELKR

[3] = molecular target: T3, 4H687-bH
T3 chain: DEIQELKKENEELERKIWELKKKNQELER

[4] = molecular target: T4, 4H918-bH
T4 chain: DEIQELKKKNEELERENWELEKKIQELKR

[5] = molecular target: T5, 4H72-bH
T5 chain: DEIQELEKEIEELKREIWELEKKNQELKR

[6] = molecular target: T6, 4H607-bH
T6 chain: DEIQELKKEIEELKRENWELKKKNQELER

[7] = molecular target: T7, 4H3843-bH
T7 chain: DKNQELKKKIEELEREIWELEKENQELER

[8] = molecular target: T8, 4H3855-bA
T8 chain: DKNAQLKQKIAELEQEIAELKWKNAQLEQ

[9] = molecular target: T9, 4H4001-bH
T9 chain: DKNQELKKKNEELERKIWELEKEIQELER

[10] = molecular target: T10, 4H967-bH
T10 chain: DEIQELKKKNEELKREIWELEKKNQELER

[11] = molecular target: T11, 4H462-bH
T11 chain: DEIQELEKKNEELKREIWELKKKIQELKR

[12] = molecular target: T12, 4H883-bH
T12 chain: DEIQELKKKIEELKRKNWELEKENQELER

[13] = molecular target: T13, 4H797-bH
T13 chain: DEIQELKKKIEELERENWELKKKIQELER

[14] = molecular target: T14, 4H953-bH
T14 chain: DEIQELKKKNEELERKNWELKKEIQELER

[15] = molecular target: T15, O9-bH
T15 chain: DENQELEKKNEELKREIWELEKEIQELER

[16] = molecular target: T16, O8-bH
T16 chain: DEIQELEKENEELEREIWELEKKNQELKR

[17] = molecular target: T17, 4H454-bH
T17 chain: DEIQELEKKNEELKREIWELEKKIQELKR

[18] = molecular target: T18, 4H3782-bH
T18 chain: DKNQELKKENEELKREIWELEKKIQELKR

[19] = molecular target: T19, 4H3855-bH
T19 chain: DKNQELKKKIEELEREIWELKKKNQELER

[20] = molecular target: T20, 4H908-bH
T20 chain: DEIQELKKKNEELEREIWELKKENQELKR

[21] = molecular target: T21, 4H717-bH
T21 chain: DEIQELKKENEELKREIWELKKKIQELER

[22] = molecular target: T22, 4H754-bH
T22 chain: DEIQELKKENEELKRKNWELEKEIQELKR

interaction score [1]: -2.24
B1: O9 (peptide)
chain: DENAALEAKNAALKYEIAALEAEIAALEG

interaction score [15]: 0.486
interaction score [16]: 0.991
B3: O8-bH (peptide)
chain: DEIQELEKENEELEREIWELEKKNQELKR

More lines, now with the values behind:

B2: 4H3843-bH (peptide)
chain: DKNQELKKKIEELEREIWELEKENQELER
interaction score [2]: -1.1
interaction score [3]: -0.585
interaction score [4]: -2.64
interaction score [5]: -0.557
interaction score [6]: -2.13
interaction score [7]: -0.634
interaction score [8]: 1.29
interaction score [9]: -0.099
interaction score [10]: -0.0277
interaction score [11]: -0.193
interaction score [12]: -0.346
interaction score [13]: -0.437
interaction score [14]: -0.885

B4: 4H3782-bH (peptide)
chain: DKNQELKKENEELKREIWELEKKIQELKR
interaction score [2]: 0.164
interaction score [17]: 1.75
interaction score [18]: 0.738
interaction score [3]: 0.418
interaction score [4]: -0.854
interaction score [5]: 1.04
interaction score [6]: 0.717
interaction score [7]: 0.943
interaction score [19]: 0.0378
interaction score [9]: 0.67
interaction score [10]: -0.136
interaction score [11]: 1.71
interaction score [12]: -0.532
interaction score [20]: -1.78
interaction score [21]: 0.481
interaction score [22]: 0.775
interaction score [13]: -0.446
interaction score [14]: -0.497
